Results reported in patent US20050203007A1 (REGENTS OF THE UNIVERSITY OF MICHIGAN, published 2005).
Each block holds one binder with its values, some of them ahead of it.

Experiments:
[1] = target: T1, secreted, soluble furin (human, UniProt P09958 108-715, limits assumed); test: rapid furin inhibition assay; table lists substitutions with equal or enhanced inhibition of furin relative to the template
T1 construct: Secreted, soluble construct; also called human furin
Experimental: 3. Rapid screening of libraries. Libraries were introduced into E. coli BL21 (DE3) cells and individual, cloned transformants were grown by shaking at 37° C. in 200 μl LB containing […] kanamycin in 96-well, 0.45 μm GHP membrane filter plates (Gelman) (FIG. 2). When O.D. 600 values reached 0.4, 60 μl of culture were transferred to secondary 96-well plates (Falcon), adjusted to 10% glycerol, and stored at −80° C. These frozen stocks served as master copies of the libraries. IPTG was added to the cultures to a final concentration of 1 mM, and the cultures were allowed to express eglin c variants for one hour in the filter plate. Expressed eglin c variants were extracted from the cells with 50 mM Tris-HCl pH 8.0 containing 2 mM EDTA following freezing and thawing. These extracts were collected as filtrates by centrifugation of the filter plate above a second plate. The filtrates, representing partially purified eglin c variants, were analyzed using a rapid fluorescence-based assay for processing enzyme inhibition as described below in Section 5. […] Frozen cells were cultured in 50 to 100 ml culture volumes, and DNA maxipreps were performed; the DNA preparations were then sequenced by automated DNA sequencing. Selected variants were expressed and purified on a larger scale, and affinities for furin or Kex2 were examined quantitatively (see below).
5. Rapid protease inhibition assay. Novel eglin variants were diluted 50-fold and incubated with secreted, soluble furin (0.5 nM) for 15 min in 96-well plates. The furin substrate (Boc-Arg-Val-Arg-Arg-MCA) was added, and release of AMC was monitored continuously in a 96-well fluorescence plate reader for 20 min, as described under Example 1. […] The plasmid DNA encoding such eglin c variant inhibitors were isolated and sequenced.

[2] = target: T2, human PC7 (human, UniProt Q16549 142-667, limits assumed); test: enzyme inhibition, purified variant
T2 sequence (looked up): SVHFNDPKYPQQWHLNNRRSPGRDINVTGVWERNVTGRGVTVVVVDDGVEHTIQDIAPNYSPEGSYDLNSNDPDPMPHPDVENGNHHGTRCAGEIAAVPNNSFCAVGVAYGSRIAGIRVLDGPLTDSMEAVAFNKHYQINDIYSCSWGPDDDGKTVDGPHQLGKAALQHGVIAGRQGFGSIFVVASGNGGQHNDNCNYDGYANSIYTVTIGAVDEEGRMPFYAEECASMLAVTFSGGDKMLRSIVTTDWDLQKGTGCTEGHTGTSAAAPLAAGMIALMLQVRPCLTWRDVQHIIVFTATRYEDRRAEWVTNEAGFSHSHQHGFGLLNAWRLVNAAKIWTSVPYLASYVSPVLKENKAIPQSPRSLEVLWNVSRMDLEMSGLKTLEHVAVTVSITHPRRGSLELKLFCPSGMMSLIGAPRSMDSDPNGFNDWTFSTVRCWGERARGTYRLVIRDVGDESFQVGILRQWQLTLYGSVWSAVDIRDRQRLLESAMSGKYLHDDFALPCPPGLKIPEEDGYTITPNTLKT

[3] = target: T1, secreted, soluble furin; test: enzyme inhibition, purified variant
[4] = target: T3, secreted, soluble Kex2 (Saccharomyces cerevisiae, UniProt P13134 114-613, limits assumed); test: enzyme inhibition, purified variant
T3 construct: Secreted, soluble construct; also called kexin
T3 sequence (looked up): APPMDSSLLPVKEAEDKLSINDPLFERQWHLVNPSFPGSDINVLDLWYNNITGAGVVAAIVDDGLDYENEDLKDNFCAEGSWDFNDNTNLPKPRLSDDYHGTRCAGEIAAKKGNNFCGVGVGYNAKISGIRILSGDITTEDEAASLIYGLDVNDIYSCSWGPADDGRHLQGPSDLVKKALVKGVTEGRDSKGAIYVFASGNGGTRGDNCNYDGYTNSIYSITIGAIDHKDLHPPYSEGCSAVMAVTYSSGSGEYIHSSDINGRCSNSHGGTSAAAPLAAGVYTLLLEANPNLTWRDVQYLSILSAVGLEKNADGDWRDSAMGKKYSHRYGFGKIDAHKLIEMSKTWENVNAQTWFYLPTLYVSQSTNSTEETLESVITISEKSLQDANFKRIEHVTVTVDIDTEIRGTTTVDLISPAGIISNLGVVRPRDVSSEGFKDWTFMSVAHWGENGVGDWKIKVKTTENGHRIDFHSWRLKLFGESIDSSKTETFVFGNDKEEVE

[5] = target: T1, secreted, soluble furin; test: enzyme inhibition, purified variant; remark: listed apart in the source
Experimental: (§1) Affinities of eglin variants with secreted, soluble Kex2 (hereafter “Kex2”; Brenner, C. and Fuller, R. S. (1992) Proc. Natl. Acad. Sci. USA 89: 922-926) and secreted, soluble furin (hereafter, “furin”; Bravo, D. A. et al (1994) J. Biol. Chem. 269: 25830-25837; and Komiyama & Fuller (2000) Biochemistry 39: 15156-15165) were measured by incubating variants with the enzymes (˜0.5 to 2.0 nM) for 45 min to 1 h at 21° C. in one of two enzyme assay buffers. For Kex2, the buffer was 200 mM Bistris (pH 7.27) containing 1 mM CaCl₂ and 0.1% Triton X-100; and for furin, the buffer was 20 mM NaMES (pH 7.0) containing 1 mM CaCl₂ and 0.1% Triton X-100 for furin. 100 to 200 μL aliquots of reaction mixtures were transferred into triplicate wells of opaque 96 well plates (Costar), and residual enzyme activity was measured with an fmax fluorescence micro plate reader (Molecular Devices) by monitoring hydrolysis of a fluorogenic substrate Boc-Arg-Val-Arg-Arg-MCA. Data were graphically analyzed (KaleidaGraph) with an equation developed by Green and Work (1953). Site-directed mutagenesis at P2 and P6 of eglin c generated temporary inhibitors (Table 3) and exhausted possibility to improve affinity further with this approach.

[6] = target: T3, secreted, soluble Kex2; test: enzyme inhibition, purified variant; remark: listed apart in the source
Experimental: as §1

[7] = target: T1, secreted, soluble furin; test: equilibrium enzyme inhibition, fluorogenic substrate
Experimental: as §1

[8] = target: T3, secreted, soluble Kex2; test: as above
Experimental: as §1

[9] = target: T1, secreted, soluble furin; test: equilibrium enzyme inhibition
Experimental: (§2) Thus, R1-eglin refers to substitution of Arg at position P1.
(§3) Affinities of eglin variants with secreted, soluble Kex2 (hereafter “Kex2”; Brenner, C. and Fuller, R. S. (1992) Proc. Natl. Acad. Sci. USA 89: 922-926) and secreted, soluble furin (hereafter, “furin”; Bravo, D. A. et al (1994) J. Biol. Chem. 269: 25830-25837; and Komiyama & Fuller (2000) Biochemistry 39: 15156-15165) were measured by incubating variants with the enzymes (˜0.5 to 2.0 nM) for 45 min to 1 h at 21° C. in one of two enzyme assay buffers. For Kex2, the buffer was 200 mM Bistris (pH 7.27) containing 1 mM CaCl₂ and 0.1% Triton X-100; and for furin, the buffer was 20 mM NaMES (pH 7.0) containing 1 mM CaCl₂ and 0.1% Triton X-100 for furin.

[10] = target: T3, secreted, soluble Kex2; test: equilibrium enzyme inhibition
Experimental: as §2, §3

[11] = target: T3, secreted, soluble Kex2; test: affinity of purified variants, enzyme inhibition

T1 sequence (P09958 108-715 limits assumed): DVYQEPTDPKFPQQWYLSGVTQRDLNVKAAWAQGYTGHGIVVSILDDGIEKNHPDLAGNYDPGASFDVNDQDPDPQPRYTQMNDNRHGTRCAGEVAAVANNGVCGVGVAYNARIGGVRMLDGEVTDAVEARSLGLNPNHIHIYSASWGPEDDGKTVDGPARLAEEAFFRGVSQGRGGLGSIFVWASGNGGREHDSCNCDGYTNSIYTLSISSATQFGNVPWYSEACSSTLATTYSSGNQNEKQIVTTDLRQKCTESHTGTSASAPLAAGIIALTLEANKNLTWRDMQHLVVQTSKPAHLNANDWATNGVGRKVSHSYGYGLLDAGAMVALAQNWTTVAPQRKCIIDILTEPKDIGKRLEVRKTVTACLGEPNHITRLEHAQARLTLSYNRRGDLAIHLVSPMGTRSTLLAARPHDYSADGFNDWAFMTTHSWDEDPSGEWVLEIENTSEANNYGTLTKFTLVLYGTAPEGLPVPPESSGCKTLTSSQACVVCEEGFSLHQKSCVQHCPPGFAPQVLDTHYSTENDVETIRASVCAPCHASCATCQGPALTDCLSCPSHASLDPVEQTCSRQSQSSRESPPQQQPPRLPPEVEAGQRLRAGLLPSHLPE

B3: Ser49-R4R1-eglin (designed binder)
chain: SMGSELKSFPEVVGKTVDQAREYFTLHYPQYDVYFLPEGSRVTRDLRSNRVRVFYNPGTNVVNHVPHVG
notes: R4R1 template; N-terminal Met removed
Ki [2]: 2.5 nM
Ki [3]: 4.8 nM
Ki [4]: 0.21 nM

B4: Asp33Val-R4K1-eglin (designed binder)
chain: SMGSELKSFPEVVGKTVDQAREYFTLHYPQYVVYFLPEGSRVTKDLRYNRVRVFYNPGTNVVNHVPHVG
notes: R4K1 template; N-terminal Met removed
Ki [5]: 17 nM
Ki ratio (to R4K1- template) [5]: 0.455
Ki [6]: 1.2 nM
Ki ratio (to R4K1- template) [6]: 0.476

B5: R4-eglin (designed binder)
chain: SMGSELKSFPEVVGKTVDQAREYFTLHYPQYDVYFLPEGSRVTLDLRYNRVRVFYNPGTNVVNHVPHVG
notes: N-terminal Met removed; also called R4L1-eglin
Ki [7]: 56000 nM
Ki [8]: 100000 nM
fold enhancement of affinity relative to L1-eglin [9]: 2 to 3 fold
fold increase in affinity relative to L1-eglin [10]: 5 fold

B6: Met49-R4R1-eglin (designed binder)
chain: SMGSELKSFPEVVGKTVDQAREYFTLHYPQYDVYFLPEGSRVTRDLRMNRVRVFYNPGTNVVNHVPHVG
notes: as for B3
Ki [2]: 1.4 nM
Ki [3]: 1.6 nM
Ki [4]: 1 nM

B7: Leu37Gly-R4K1-eglin (designed binder)
chain: SMGSELKSFPEVVGKTVDQAREYFTLHYPQYDVYFGPEGSRVTKDLRYNRVRVFYNPGTNVVNHVPHVG
notes: as for B4
Ki [5]: 29 nM
Ki ratio (to R4K1- template) [5]: 0.769
Ki [6]: 1.6 nM
Ki ratio (to R4K1- template) [6]: 0.625

B8: Tyr49Ala-R4R1-eglin (designed binder)
chain: SMGSELKSFPEVVGKTVDQAREYFTLHYPQYDVYFLPEGSRVTRDLRANRVRVFYNPGTNVVNHVPHVG
notes: R4R1 template; N-terminal Met removed; also called Ala49-R4R1-
Ki [2]: 2.9 nM
Ki [3]: 1.8 nM
Ki [4]: 1 nM
Ki [5]: 1.3 nM
Ki ratio (to R4R1- template) [5]: 0.526
fold increase in affinity (relative to R4R1-eglin) [5]: ~2 fold
Ki [6]: 1 nM
Ki ratio (to R4R1- template) [6]: 1.1

B11: Trp49-R4R1-eglin (designed binder)
chain: SMGSELKSFPEVVGKTVDQAREYFTLHYPQYDVYFLPEGSRVTRDLRWNRVRVFYNPGTNVVNHVPHVG
notes: as for B3
Ki [2]: 0.47 nM
Ki [3]: 10 nM
Ki [4]: 1.2 nM

B14: Glu49-R4R1-eglin (designed binder)
chain: SMGSELKSFPEVVGKTVDQAREYFTLHYPQYDVYFLPEGSRVTRDLRENRVRVFYNPGTNVVNHVPHVG
notes: as for B3
Ki [2]: 2.9 nM
Ki [3]: 0.53 nM
Ki [4]: 0.036 nM

B17: M4K1-eglin (designed binder)
chain: SMGSELKSFPEVVGKTVDQAREYFTLHYPQYDVYFLPEGSMVTKDLRYNRVRVFYNPGTNVVNHVPHVG
notes: N-terminal Met removed
Ki [7]: 17000 nM
Ki [8]: 4.5 nM
fold decrease of Ka relative to M4R1-eglin [9]: 4.7 fold
fold decrease of Ka relative to M4R1-eglin [10]: 13.2 fold

Other lines, results leading:

binding result [1]: binds
B1: Asn50Asp-R4K1-eglin (designed binder)
chain: SMGSELKSFPEVVGKTVDQAREYFTLHYPQYDVYFLPEGSRVTKDLRYDRVRVFYNPGTNVVNHVPHVG

binding result [1]: binds
B2: Leu47Val-R4R1-eglin (designed binder)
chain: SMGSELKSFPEVVGKTVDQAREYFTLHYPQYDVYFLPEGSRVTRDVRYNRVRVFYNPGTNVVNHVPHVG

binding result [11]: binds
binding result [1]: binds
B9: Glu39Cys-R4R1-eglin (designed binder)
chain: SMGSELKSFPEVVGKTVDQAREYFTLHYPQYDVYFLPCGSRVTRDLRYNRVRVFYNPGTNVVNHVPHVG

binding result [1]: binds
B10: Gly40Ala-R4R1-eglin (designed binder)
chain: SMGSELKSFPEVVGKTVDQAREYFTLHYPQYDVYFLPEASRVTRDLRYNRVRVFYNPGTNVVNHVPHVG

binding result [11]: binds
binding result [1]: binds
B12: Glu39Gly-R4R1-eglin (designed binder)
chain: SMGSELKSFPEVVGKTVDQAREYFTLHYPQYDVYFLPGGSRVTRDLRYNRVRVFYNPGTNVVNHVPHVG

binding result [1]: binds
B13: Tyr35Ile-R4R1-eglin (designed binder)
chain: SMGSELKSFPEVVGKTVDQAREYFTLHYPQYDVIFLPEGSRVTRDLRYNRVRVFYNPGTNVVNHVPHVG

binding result [1]: binds
B15: Gly40Pro-R4R1-eglin (designed binder)
chain: SMGSELKSFPEVVGKTVDQAREYFTLHYPQYDVYFLPEPSRVTRDLRYNRVRVFYNPGTNVVNHVPHVG

binding result [1]: binds
B16: Asp33Ile-R4K1-eglin (designed binder)
chain: SMGSELKSFPEVVGKTVDQAREYFTLHYPQYIVYFLPEGSRVTKDLRYNRVRVFYNPGTNVVNHVPHVG

binding result [1]: binds
B18: Asp33Gly-R4K1-eglin (designed binder)
chain: SMGSELKSFPEVVGKTVDQAREYFTLHYPQYGVYFLPEGSRVTKDLRYNRVRVFYNPGTNVVNHVPHVG
